The text below walks through data of patent US20260274944A1.

The target in this assay is RAGE (the receptor of interest on CHO cell lines; human or mouse not told). The assay is described as follows: cell-based or functional assay.

B1: VHH 5-LNP (protein)
VHH: EVQLVESGGGLVQPGGSLRLSCAASGTIFSLNPMGWYRQAPGKQLELVALISDSGTANYADFVRGRFTISRDTTKKTLYLQMNSLEPEDTAVYYCRSTFAAGNFYWGQGTQVTVSS
modifications: here or on the partner: BCN (bicyclo[6.1.0]nonyne) selectively conjugated to the VHH and clicked to DOPE-PEG2000-N3 on the surface of a lipid nanoparticle loaded with luciferase mRNA
For B1, the cellular delivery of FLuc mRNA (luminescence), fold against control LNP fell in the range of 3 to 5 fold.
